Consider seven molecules from patent US20140161798A1 (Merck Sharp & Dohme, published 2014).

Positions count from the first letter of the chain named.

The target of assay [1] is mouse liver LDL receptor (C57BL/6j mice) (mouse) (UniProt P35951). In words: cell-based or functional assay.
The target of assay [2] is Purified PCSK9 carrying a C-terminal FLAG tag (UniProt Q8NBP7). As to the kind of experiment: AlphaScreen PCSK9-FLAG/His-LDLR; non-specific control; log[antibody] ug/ml -2.46802. A general note: In Alpha technology, singlet oxygen from a donor bead excites a nearby acceptor bead.
Assay [3] has the same target. In words: AlphaScreen PCSK9-FLAG/His-LDLR; non-specific control; log[antibody] ug/ml 0.394711.
Assay [4] has the same target. In words: AlphaScreen PCSK9-FLAG/His-LDLR; non-specific control; log[antibody] ug/ml -0.08241.
Assay [5] has the same target. As to the kind of experiment: AlphaScreen PCSK9-FLAG/His-LDLR; non-specific control; log[antibody] ug/ml -1.9909.
For assay [6] the target is unchanged. As to the kind of experiment: AlphaScreen PCSK9-FLAG/His-LDLR; non-specific control; log[antibody] ug/ml -2.46802. This is another data set of the same source.
Assay [7] has the same target. As to the kind of experiment: AlphaScreen PCSK9-FLAG/His-LDLR; non-specific control; log[antibody] ug/ml -1.03665.
Assay [8] has the same target. As to the kind of experiment: AlphaScreen PCSK9-FLAG/His-LDLR; non-specific control; log[antibody] ug/ml 1.348954.
For assay [9] the target is unchanged. As to the kind of experiment: AlphaScreen PCSK9-FLAG/His-LDLR; non-specific control; log[antibody] ug/ml 0.871832.
Assay [10] shares this target. In words: AlphaScreen PCSK9-FLAG/His-LDLR; non-specific control; log[antibody] ug/ml -0.55953.
Assay [11] has the same target. In words: AlphaScreen PCSK9-FLAG/His-LDLR; non-specific control; log[antibody] ug/ml -1.03665. This is another data set of the same source.
For assay [12] the target is unchanged. In words: AlphaScreen PCSK9-FLAG/His-LDLR; non-specific control; log[antibody] ug/ml 1.348954. The source holds these as a separate data set.
Assay [13] shares this target. In words: AlphaScreen PCSK9-FLAG/His-LDLR; non-specific control; log[antibody] ug/ml 0.871832. This is another data set of the same source.
The target is the same in assay [14]. In words: AlphaScreen PCSK9-FLAG/His-LDLR; non-specific control; log[antibody] ug/ml -2.94514.
The target is the same in assay [15]. As to the kind of experiment: AlphaScreen PCSK9-FLAG/His-LDLR; non-specific control; log[antibody] ug/ml -0.55953. The source holds these as a separate data set.
Assay [16] has the same target. As to the kind of experiment: AlphaScreen PCSK9-FLAG/His-LDLR; non-specific control; log[antibody] ug/ml -1.9909. The source holds these as a separate data set.
For assay [17] the target is unchanged. In words: AlphaScreen PCSK9-FLAG/His-LDLR; non-specific control; log[antibody] ug/ml 0.394711. The source holds these as a separate data set.
The target is the same in assay [18]. As to the kind of experiment: AlphaScreen PCSK9-FLAG/His-LDLR; non-specific control; log[antibody] ug/ml -1.51377.
Assay [19] has the same target. As to the kind of experiment: AlphaScreen PCSK9-FLAG/His-LDLR; non-specific control; log[antibody] ug/ml 1.826075.
Assay [20] shares this target. Described as above. This is another data set of the same source.
The target is the same in assay [21]. In words: AlphaScreen PCSK9-FLAG/His-LDLR; non-specific control; log[antibody] ug/ml -1.51377. This is another data set of the same source.
Assay [22] has the same target. As to the kind of experiment: AlphaScreen PCSK9-FLAG/His-LDLR; non-specific control; log[antibody] ug/ml -0.08241. The source holds these as a separate data set.
Assay [23] has as its target T1, Purified PCSK9 carrying a C-terminal FLAG tag (UniProt Q8NBP7 31-692).
T1 construct: also called PCSK9-FLAG; PCSK9-Flag; not shown: C-terminal FLAG tag
As to the kind of experiment: AlphaScreen, inhibition of PCSK9-Flag/His-tagged LDL receptor interaction, relative to no antibody. The procedure:
(§1) This technique required that “donor” and “acceptor” beads be brought into proximity via protein—protein interaction, resulting in increased luminescence (Ullman et al., Proc. Nat. Acad. Sci. (1994) 91:5426-5430). […] About 2.5 μl of biotinylated anti-Flag-M2 antibody (1.8 μg/ml) was added and the mixture incubated for 1 hour. Afterward 5 μl of streptavidin donor bead and nickel chelate acceptor bead (1:1 mixture) was added and the assay incubated overnight. AlphaScreen signal (counts per second) was analyzed using an EnVision microplate reader (Perkin-Elmer). All data points were determined in triplicate. Assays were carried out at 23° C. in buffer containing 25 mM HEPES, 0.1 M NaCl, pH 7.4, 0.1% BSA. The inhibition assays were determined similarly with slight adjustments to assay volumes and protein concentrations.

In assay [24] the target is T1, Purified PCSK9 carrying a C-terminal …. In words: AlphaScreen, inhibition of PCSK9-Flag/His-tagged LDL receptor interaction. As to the method:
as §1

mouse liver LDL receptor (C57BL/6j mice) (mouse), sequence (P35951 22-862): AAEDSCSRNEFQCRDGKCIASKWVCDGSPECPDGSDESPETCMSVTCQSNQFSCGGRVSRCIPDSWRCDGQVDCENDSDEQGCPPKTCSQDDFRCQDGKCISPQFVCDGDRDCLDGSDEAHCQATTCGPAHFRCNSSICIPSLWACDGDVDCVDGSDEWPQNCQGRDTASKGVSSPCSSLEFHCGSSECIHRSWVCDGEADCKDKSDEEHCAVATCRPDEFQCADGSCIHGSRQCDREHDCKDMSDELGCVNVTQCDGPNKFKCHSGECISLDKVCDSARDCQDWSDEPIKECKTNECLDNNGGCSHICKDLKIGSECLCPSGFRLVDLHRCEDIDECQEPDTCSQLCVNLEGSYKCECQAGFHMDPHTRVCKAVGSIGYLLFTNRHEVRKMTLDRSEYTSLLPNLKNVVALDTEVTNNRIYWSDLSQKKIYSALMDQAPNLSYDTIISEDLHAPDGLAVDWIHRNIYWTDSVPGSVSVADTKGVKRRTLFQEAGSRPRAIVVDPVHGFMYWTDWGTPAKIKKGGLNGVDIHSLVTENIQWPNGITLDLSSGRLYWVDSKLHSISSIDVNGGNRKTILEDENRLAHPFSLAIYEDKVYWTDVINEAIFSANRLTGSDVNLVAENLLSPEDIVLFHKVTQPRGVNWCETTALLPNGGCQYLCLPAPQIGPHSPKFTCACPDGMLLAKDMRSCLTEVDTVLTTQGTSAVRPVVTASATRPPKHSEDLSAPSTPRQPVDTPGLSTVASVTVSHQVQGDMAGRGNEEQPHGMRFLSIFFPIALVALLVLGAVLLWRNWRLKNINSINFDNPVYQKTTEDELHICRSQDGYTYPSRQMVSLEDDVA
Purified PCSK9 carrying a C-terminal FLAG tag (UniProt Q8NBP7), sequence (Q8NBP7 31-692 limits assumed): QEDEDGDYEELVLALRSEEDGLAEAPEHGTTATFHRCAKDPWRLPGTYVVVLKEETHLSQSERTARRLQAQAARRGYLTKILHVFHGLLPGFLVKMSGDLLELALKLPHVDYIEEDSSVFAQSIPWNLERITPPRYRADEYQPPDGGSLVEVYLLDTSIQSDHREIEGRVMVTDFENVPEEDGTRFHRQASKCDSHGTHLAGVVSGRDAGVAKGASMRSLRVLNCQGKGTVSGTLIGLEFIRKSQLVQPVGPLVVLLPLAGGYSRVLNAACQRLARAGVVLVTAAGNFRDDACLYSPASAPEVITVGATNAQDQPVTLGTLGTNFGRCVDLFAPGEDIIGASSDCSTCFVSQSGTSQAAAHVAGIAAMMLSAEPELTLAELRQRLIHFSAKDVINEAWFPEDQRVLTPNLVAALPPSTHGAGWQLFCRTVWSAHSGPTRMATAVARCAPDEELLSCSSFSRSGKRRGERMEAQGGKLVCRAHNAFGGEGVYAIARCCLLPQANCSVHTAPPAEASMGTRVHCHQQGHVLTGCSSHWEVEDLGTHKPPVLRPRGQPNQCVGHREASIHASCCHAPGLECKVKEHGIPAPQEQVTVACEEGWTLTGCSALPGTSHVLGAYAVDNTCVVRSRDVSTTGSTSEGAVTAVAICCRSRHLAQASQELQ
T1 sequence (Q8NBP7 31-692 limits assumed): as above

In the case of “human PCSK9 Protein (injected intravenously into mice) (from UniProt Q8NBP7 31-692) (enzyme)”, in assay [1], the % Change of mean liver LDLR/GAPDH against saline only, mice given Saline and PCSK9 (darker exposure) was -78.8%; the % Change of mean liver LDLR/GAPDH against saline only, mice given Saline and PCSK9 (lightest exposure) is -82%; the Mean liver LDLR/GAPDH, mice given Saline and PCSK9 (western blot, darker exposure of LDLR panel) turned out to be 0.123 AU.
“human PCSK9 Protein (injected intravenously into mice) (from UniProt Q8NBP7 31-692)”: in assay [1], the Mean liver LDLR/GAPDH, mice given Saline and PCSK9 (western blot, lightest exposure) stood at 0.081 AU.
For non-specific IgG control (antibody), the AlphaScreen mean counts in [2] was found to be 140000 counts; in assay [3] it was 79600 counts; in assay [4] it was 82800 counts; in assay [5] it was 80700 counts; in assay [6], 78200 counts; in assay [7], 84400 counts. The AlphaScreen mean counts in assay [8] turned out to be 135000 counts; in [9] it was 140000 counts; in [10], 139000 counts; in assay [11], 127000 counts; in [12] it was 74400 counts; in assay [13], 79600 counts. Moreover, the AlphaScreen mean counts in assay [14] came to 82100 counts; in assay [15], 88100 counts; in assay [16] it was 135000 counts; in assay [17], 136000 counts; in [18], 134000 counts; in [19], 61900 counts. The figures for the AlphaScreen mean counts in assay [20], in assay [21] and in [22] were 114000 counts, 83100 counts and 140000 counts, respectively.

B1: 29C10 anti-PCSK9 antibody (IgG2a) (antibody, V domains shown)
VH: EVLLQQSVAELVRPGASVRLSCTASGFNIKDTYIHWVRQRPEQGLEWFGWIDPANGYTKYAPNFQGKATLTTDTSSNTAYLHLSSLTSEDSAIYYCARGYYRYYSLDYWGQGTSVTVSS
VL: DIQMTQTTSSLSASLGDRVTISCRASQDISNYLNWYQQKPDGTVKLLIYYSSRLHSGVPSRFSGRGSGTDYSLTISTLEQEDIATYFCQQGKTLPLTFGAGTKLELKR
As to B1, the “% inhibition at 450 nM of antibody” value in assay [23] amounted to 71%. The same molecule returned an IC50 in assay [24] of 13 nM.

B2: 77D10 anti-PCSK9 antibody (IgG2b) (antibody, V domains shown)
VH: EVQLQQSGAELVRSGASVKLSCTTSGFNIKDYYIHWVKQRPEQGLEWIGWIDPENGDTEYAPKFQGKATMTADTSSNTAYLQLSSLTSADTAVYYCNAYYRYDDGTWFPYWGQGTLVTVSA
VL: DIQLTQSPASLSASVGETVTITCRASGNIHSYLAWYQQKQGKSPQFLVDNAKTLPDGVPSRFSVSGSGTQYSLKINSLQPEDFGTYYCQHFWNTPWTFGGGTKLEIKR
Turning to B2, the “% inhibition at 450 nM of antibody” value in assay [23] amounted to 62%. This molecule also returned an IC50 in assay [24] of 38 nM.

B3: 75B9 anti-PCSK9 antibody (IgG2a) (antibody, V domains shown)
VH: EVQLQQSGADLVKPGASVKLSCTASGFNIKDTYIHWVKQRPEQGLEWIGRIDPANGHTEYDPKFQGRATLTTDTSSNTAYLQLFSLTSEDSAVYFCARSYYGSIFAYWGQGTLVTVSA
VL: QIVLTQSPAIMSASPGEKVTISCSASSSVSYLFWYQQKPGSSPKPWIFRTSYLASGVPARFSGSGSGTSFSLTISSMEAEDAATYYCHQYHTYPPTFGGGTKLEIKR
As for B3, in [23], the “% inhibition at 450 nM of antibody” value turned out to be 100%. This molecule also returned an IC50 in assay [24] of 0.5 nM.

B4: 11B5 anti-PCSK9 antibody (IgG2a) (antibody, V domains shown)
VH: EVQLQQSGAELVKPGASVTLSCTASGFNIKDTYMHWVNQRPEQGLVWIGRIDPANGHTEYDPKFQDKATITTDTSSNTAYLHLSSLTSGDTAVYYCARSYFGSIFAYWGQGTLVTVSA
VL: B3 VL with F33Y, T50S, Y52H, L53R, F70Y, H91Q, T92S
Consider B4, for which the “% inhibition at 450 nM of antibody” value in [23] stood at 100%. Besides, 0.4 nM corresponded to half-maximal inhibition in assay [24] (IC50).

The term % inhibition denotes the change of the read-out against control, counted positive when it falls. A low value points to a response near the control. The term IC50 denotes the concentration that gives 50% inhibition. Lower therefore signals greater potency.
